According to paper PMC4862330:

Molecular target: F-actin (polymerized rabbit skeletal muscle G-actin) (rabbit) (UniProt P68135)
Test: co-sedimentation

Question: Which percent decrease in F-actin binding compared with wild type does the source give for “talin ABS2 6× mutant (K922E/Q923E/Q930E/K1500E/R1510E/K1522E) (from UniProt P26039 1-2541) (domain or fragment)” here?
Answer: 60%
